The values that follow come from patent US20060040319A1, “Multiple sensor-containing active modified polypeptides, preparation and uses thereof” (priority 2000, published 2006).

Where no end group is shown, it is not given here.

Assay [1] concerns the target T1, GST fusion of mouse c-Abl containing only the SH2 and kinase domains (Mus musculus, UniProt P00520).
T1 construct: a GST fusion of mouse c-Abl containing only the SH2 and kinase domains; made in house; host or cells: E. coli BL21
T1 sequence (P00520 127-493): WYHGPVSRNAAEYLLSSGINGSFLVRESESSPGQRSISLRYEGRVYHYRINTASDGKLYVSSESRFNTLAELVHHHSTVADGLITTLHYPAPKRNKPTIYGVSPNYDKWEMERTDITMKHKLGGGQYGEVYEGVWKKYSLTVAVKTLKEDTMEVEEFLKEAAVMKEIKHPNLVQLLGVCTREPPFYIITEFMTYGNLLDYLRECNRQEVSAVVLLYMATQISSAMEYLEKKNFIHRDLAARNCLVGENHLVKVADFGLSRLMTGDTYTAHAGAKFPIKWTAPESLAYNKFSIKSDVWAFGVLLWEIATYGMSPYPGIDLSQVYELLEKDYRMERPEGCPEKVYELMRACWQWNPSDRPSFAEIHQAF
The assay can be described thus: Kinase assay with truncated c-Abl containing only the SH2 and kinase domains. Format: biochemical. The note with it: truncated c-Abl, after 60 min. Here is the method: (§1) Purified Rh-(Crk-II)-Fl prepared as described in Example I was treated with either full length recombinant (Baculovirus/SF9) mouse c-Abl or a GST fusion of mouse c-Abl containing only the SH2 and kinase domains (expressed in E. coli BL21 essentially as described (19)). In a typical experiment, the appropriate c-Abl construct was incubated in reaction buffer (2 mM DTT, 0.2 mg/ml BSA, 10 mM Mg^2+, 50 mM Tris, pH 7.4, either with or without ATP (500 μM)) for 5 min at 30° C. before addition of Rh-(Crk-II)-Fl (final concentration=0.25 μM). In order to ensure that equal amounts of active c-Abl enzyme were added to each reaction, preliminary titration experiments were carried out using an optimized peptide substrate for c-Abl (EAIYAAPFAKKK (SEQ ID No:2) (20)). […] In all cases, aliquots of the reaction mixtures were removed at ˜1 min and 60 min, quenched with EDTA (final conc.=40 mM), and then analyzed by native-PAGE and/or Western blotting and fluorescence spectroscopy. […]
(§2) Fluorescence Spectroscopy. […] Excitation was at 490 nm with a 2.5 nm slit and the fluorescence emission was monitored at 520 nm and 580 nm through a 4 nm slit. […] Rh-(Crk-II)-Fl was treated with full length recombinant c-Abl and aliquots of the reaction mixture were analyzed by fluorescence spectroscopy and western blotting at ˜1 min and 60 min time-points. […]

Assay [2] concerns the target T2, N-SH3 domain of Crk-II (binding to c-Abl) (Mus musculus, UniProt Q64010).
T2 construct: extra Gly plus fluorescein peptide (Cys-Fl-PS, remainder after PreScission site) (C); made in house; host or cells: E. coli BL21 (Crk-II-intein fusion), then ligation of synthetic peptides
The assay can be described thus: Peptide inhibition study: Crk-II phosphorylation by full length c-Abl in presence of N-SH3 ligand (Rh-(Crk-II)-Fl biosensor). The assay is classed as biochemical. The note with it: fluorescence-based assay. The protocol: as §1, §2

T2 sequence (Q64010 with tags, fused parts or gaps): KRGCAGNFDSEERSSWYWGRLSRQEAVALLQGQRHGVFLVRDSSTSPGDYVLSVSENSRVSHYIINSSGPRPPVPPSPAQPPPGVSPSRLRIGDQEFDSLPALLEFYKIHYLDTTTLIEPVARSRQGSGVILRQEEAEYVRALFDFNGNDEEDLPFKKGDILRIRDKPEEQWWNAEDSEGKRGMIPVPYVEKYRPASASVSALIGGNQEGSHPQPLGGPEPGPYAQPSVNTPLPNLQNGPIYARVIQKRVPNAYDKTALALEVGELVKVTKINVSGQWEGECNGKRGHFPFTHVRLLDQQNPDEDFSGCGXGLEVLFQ

Turning to “EAIYAAPFAKKK (Peptide Substrate) [optimized peptide substrate for c-Abl, reference compound]”, the “phosphorylation of optimized peptide substrate” value in assay [1] is reported as “completely phosphorylated”.

For “PPPALPPKRRR-NH2 [high affinity N-SH3 ligand]”, in assay [2], the “effect on Crk-II phosphorylation by c-Abl” value is “partially inhibit Crk-II phosphorylation”.
